Experiments:
MS2 coat protein = experiment: apparent KD of MS2 coat protein; higher = weaker reporter binding; details: Eterna round: R107
Description: (§1)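 RNA-MaP round R107: designed RNA switches with theophylline, tryptophan, arginine or FMN aptamers are transcribed on-chip within common flanks. They are titrated with SNAP-549-labelled MS2 coat protein in RNA-MaP buffer (100 mM Tris pH 7.5, 80 mM KCl, 4 mM MgCl2), without ligand or with the indicated ligand. Median apparent KD per design.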

[1] = test system: K4 kissing-loop RNA reporter; experiment: apparent KD of K4 kissing-loop reporter; higher = weaker reporter binding; details: Eterna round: R107;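 further: bound reporter read as fluorescence of individual clusters on recovered sequencing chips by microscopy, with normalized cluster intensities fitted with a binding model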
Description: as §1, with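 “a labelled K4 kissing-loop RNA reporter” for “SNAP-549-labelled MS2 coat protein”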

[2] = input ligand: theophylline 20 uM
[3] = input ligand: theophylline 2 mM
[4] = input ligand: tryptophan 2.4 mM

“AAAACAAACUCGGCCGCCACUCCCUCCCACCCAAGGACAUGAGGAUCACCCAUGUGGCAAAGCCCGAGGACCGGGAGAAACAAAA [Same State - Trytophan B]” was tested, and the “apparent KD of MS2 coat protein” value (MS2 coat protein; input ligand: arginine 13.2 mM) was 18.1 nM, the “apparent KD of MS2 coat protein” value (MS2 coat protein; input ligand: none) was 22.2 nM and the “apparent KD of MS2 coat protein” value (MS2 coat protein; [2]) was 28.3 nM. For the same sequence, the “apparent KD of MS2 coat protein” value (MS2 coat protein; [3]) was 26.4 nM and the “apparent KD of MS2 coat protein” value (MS2 coat protein; [4]) was 20.3 nM.

With “AAAAGAGGUGGAAGGAGCGGGAGACAUGAGGAUCACCCAUGUGAAGUUACGAAAGGUUCAGCCCAGGUAGGUCGCCAUGUCGAAA [eefemullin]” the “apparent KD of MS2 coat protein” value (MS2 coat protein; input ligand: arginine 13.2 mM) was 1.33 nM, the “apparent KD of MS2 coat protein” value (MS2 coat protein; input ligand: none) was 17.5 nM and the “apparent KD of MS2 coat protein” value (MS2 coat protein; [2]) was 55.1 nM. The “apparent KD of MS2 coat protein” value (MS2 coat protein; [3]) was 58.8 nM and the “apparent KD of MS2 coat protein” value (MS2 coat protein; [4]) was 33.7 nM.

In the case of “AAAAUAAUGGCGGCCGCCACUAACUCAUAUACAUCAUGUACAUGAGGAUCACCCAUGUAGGUGUAUAGGACCGGGCCAUAAUUAA [39MS split4]”, the “apparent KD of MS2 coat protein” value (MS2 coat protein; input ligand: arginine 13.2 mM) is reported as 18.3 nM, the “apparent KD of MS2 coat protein” value (MS2 coat protein; [2]) is reported as 22.2 nM and the “apparent KD of MS2 coat protein” value (MS2 coat protein; [3]) is reported as 18.8 nM.

In the case of “AAAAUCCUACCUGAGGAUCACCCGGGUGAAGGAGCGCCCGAAAGGGCAGGUAGGUCGCACCUGAGGAUCACCCUGGUAAACCUAA [ArgEX 23 #DoubleMS2 #OpenEnded]”, the “apparent KD of MS2 coat protein” value (MS2 coat protein; input ligand: arginine 13.2 mM) is reported as 103 nM, the “apparent KD of MS2 coat protein” value (MS2 coat protein; input ligand: none) is reported as 172 nM and the “apparent KD of MS2 coat protein” value (MS2 coat protein; [2]) is reported as 183 nM. The “apparent KD of MS2 coat protein” value (MS2 coat protein; [3]) was 234 nM and the “apparent KD of MS2 coat protein” value (MS2 coat protein; [4]) was 154 nM.

“AAACAUGAGGAUCACCCAUGUAAUUCAGAAGGAGCGUCAUUAUUGACAGGUAGGUCGCUGAUAAAAUUUCUAUACAUCAUGUAUA [JR_SSArginiA_Sub013]” was tested, and the “apparent KD of MS2 coat protein” value (MS2 coat protein; input ligand: arginine 13.2 mM) was 11.9 nM, the “apparent KD of MS2 coat protein” value (MS2 coat protein; input ligand: none) was 12.4 nM and the “apparent KD of MS2 coat protein” value (MS2 coat protein; [2]) was 15.7 nM. For the same sequence, the “apparent KD of MS2 coat protein” value (MS2 coat protein; [3]) was 13 nM and the “apparent KD of MS2 coat protein” value (MS2 coat protein; [4]) was 13.3 nM.

For “AAACAUUGCUGCGAUACCAGACAUGAGGAUCACCCAUGUACCAAGAAAACGUACAUAAAUGUCCCUUGGCAGCGCAGCAAUGAAA [MAT - Exclusion Theophlline B - Mod of Eli - D27]”, the “apparent KD of MS2 coat protein” value (MS2 coat protein; input ligand: arginine 13.2 mM) was 216 nM, the “apparent KD of MS2 coat protein” value (MS2 coat protein; [2]) was 514 nM and the “apparent KD of MS2 coat protein” value (MS2 coat protein; [4]) was 651 nM.

In the case of “AAACGACAUGAGGAUCACCCAUGUGCCGAUACCAGCCGGAUAUACGGCCCUUGGCAGCGGAGUAAAUCCGGAGGACAAUGGGUAA [Same State Theophylline A GF6]”, the “apparent KD of MS2 coat protein” value (MS2 coat protein; input ligand: arginine 13.2 mM) is reported as 37.7 nM, the “apparent KD of MS2 coat protein” value (MS2 coat protein; input ligand: none) is reported as 57 nM and the “apparent KD of MS2 coat protein” value (MS2 coat protein; [2]) is reported as 49.5 nM. For the same sequence, the “apparent KD of MS2 coat protein” value (MS2 coat protein; [3]) was 92.4 nM and the “apparent KD of MS2 coat protein” value (MS2 coat protein; [4]) was 39.5 nM.

In the case of “AAAGAACAUGAGGAUCACCCAUGUACCGAAGGAGCGGCGAAGAAGCCAGGUAGGUCGCGGAACAUGAAGCGAUUAAGAAUUAAUU”, the “apparent KD of MS2 coat protein” value (MS2 coat protein; input ligand: arginine 13.2 mM) is reported as 21.5 nM, the “apparent KD of MS2 coat protein” value (MS2 coat protein; input ligand: none) is reported as 19.3 nM and the “apparent KD of MS2 coat protein” value (MS2 coat protein; [2]) is reported as 25.7 nM. The “apparent KD of MS2 coat protein” value (MS2 coat protein; [3]) was 21 nM and the “apparent KD of MS2 coat protein” value (MS2 coat protein; [4]) was 20.4 nM.

“AAAGAUCGGAAACGAUCGGCGGCUUGGGCGCGAGGACCGGUACGGCCGCCACUCGGGCAACAUGAGGAUCACCCAUGUUCCUCAU [ETA NP+V+V2 #17]” was tested, and the “apparent KD of MS2 coat protein” value (MS2 coat protein; input ligand: arginine 13.2 mM) was 75.5 nM, the “apparent KD of MS2 coat protein” value (MS2 coat protein; input ligand: none) was 146 nM and the “apparent KD of MS2 coat protein” value (MS2 coat protein; [2]) was 245 nM. For the same sequence, the “apparent KD of MS2 coat protein” value (MS2 coat protein; [3]) was 180 nM and the “apparent KD of MS2 coat protein” value (MS2 coat protein; [4]) was 189 nM.

With “AAAUAAAUACAUGAGGAUCACCCAUGUGAAGGAGCGCCCGUUAGGGCAGGUAGGUCGCACAUGAACUCCAAAGUGCAAAAGCACA [ArgEX 17 #OpenEnded]” the “apparent KD of MS2 coat protein” value (MS2 coat protein; input ligand: arginine 13.2 mM) was 35.7 nM, the “apparent KD of MS2 coat protein” value (MS2 coat protein; input ligand: none) was 21.5 nM and the “apparent KD of MS2 coat protein” value (MS2 coat protein; [2]) was 29.7 nM. The “apparent KD of MS2 coat protein” value (MS2 coat protein; [3]) was 27.4 nM and the “apparent KD of MS2 coat protein” value (MS2 coat protein; [4]) was 25.4 nM.

In the case of “AAAUAAUAUUAAUUAAUUAUAUUAUUCUGACGAGGACCGGUACGGCCGCCACUCGGCCCAUGGUACAUGAGGAUCACCCAUGUCU [Same State - Tryptophan A]”, the “apparent KD of MS2 coat protein” value (MS2 coat protein; input ligand: arginine 13.2 mM) is reported as 17 nM, the “apparent KD of MS2 coat protein” value (MS2 coat protein; [2]) is reported as 17.2 nM and the “apparent KD of MS2 coat protein” value (MS2 coat protein; [3]) is reported as 18.9 nM.

“AACAUGAGGAUCACCCAUGUCCCAUGUGAACGAGGACCGGUACGGCCGCCACUCGACCGAGGCGGCACAUGAGGAUCACCCGCAU [whbob_SS_trypto A_2s14]” was tested, and the “apparent KD of MS2 coat protein” value (MS2 coat protein; input ligand: arginine 13.2 mM) was 161 nM, the “apparent KD of MS2 coat protein” value (MS2 coat protein; [2]) was 481 nM and the “apparent KD of MS2 coat protein” value (MS2 coat protein; [3]) was 682 nM.

For “AACAUGAGGAUCACCCAUGUCCCUCCCUCCCGAGGACCGGUACGGCCGCCACUCGCCCUCCCUCCCUAAGAAAGAAAGAAGAAGA [Same State - Trypopjan A]”, the “apparent KD of MS2 coat protein” value (MS2 coat protein; input ligand: arginine 13.2 mM) was 54 nM, the “apparent KD of MS2 coat protein” value (MS2 coat protein; input ligand: none) was 37.9 nM and the “apparent KD of MS2 coat protein” value (MS2 coat protein; [2]) was 38 nM. The “apparent KD of MS2 coat protein” value (MS2 coat protein; [3]) was 38.5 nM and the “apparent KD of MS2 coat protein” value (MS2 coat protein; [4]) was 32.1 nM.

For “AACCACGAGUCGGCCGCCACUUGCAACUAGUUUCAGAAGCAGAAACAUGAGGAUCACCCAUGUCGAAGGACCGGGACUUUACAGG [theeternabot_sameState_MS2_Trp_B_18]”, the “apparent KD of MS2 coat protein” value (MS2 coat protein; input ligand: arginine 13.2 mM) was 21.6 nM, the “apparent KD of MS2 coat protein” value (MS2 coat protein; [2]) was 23.2 nM and the “apparent KD of MS2 coat protein” value (MS2 coat protein; [3]) was 17.4 nM.

“AACCGAGGCUAUCCUCUACGACUAUGUGAUACCAGAAUAAUUUUAUUCCCUUGGCAGCAUGACAUGAGGAUCACCCAUGUCUCUU [SSTheo A #9]” was tested, and the “apparent KD of MS2 coat protein” value (MS2 coat protein; input ligand: arginine 13.2 mM) was 24 nM, the “apparent KD of MS2 coat protein” value (MS2 coat protein; [2]) was 38.8 nM and the “apparent KD of MS2 coat protein” value (MS2 coat protein; [4]) was 34 nM.

For “AACCGAGGCUAUCCUCUCCGCCUAUGUGAUACCAGAAUAAUUUUAUUCCCUUGGCAGCAUGACAUGAGGAUCACCCAUGUCUCUU [SSTheo A #11]”, the “apparent KD of MS2 coat protein” value (MS2 coat protein; input ligand: arginine 13.2 mM) was 15.2 nM, the “apparent KD of MS2 coat protein” value (MS2 coat protein; [2]) was 19.4 nM and the “apparent KD of MS2 coat protein” value (MS2 coat protein; [4]) was 17.3 nM.

“AAGAAGUUUUGAUUUUUAUGAAGUAGUGAUACCAGUCAAGAAAGAGACCCUUGGCAGCGCAACAUGAGGAUCACCCAUGUAAGAA [A random design]” was tested, and the “apparent KD of MS2 coat protein” value (MS2 coat protein; input ligand: arginine 13.2 mM) was 26.2 nM, the “apparent KD of MS2 coat protein” value (MS2 coat protein; [2]) was 26.7 nM and the “apparent KD of MS2 coat protein” value (MS2 coat protein; [4]) was 24.2 nM.

In the case of “UUCAGACUACUACUAGACAGUAGUAUAUACUAGGAUAUCCAGAUAUGGAGAAGGAGUGAUGUUCCCUAGUAGUAGUGAAUUAAAU [KL-XFMN-A5]”, the “apparent KD of K4 kissing-loop reporter” value ([1]; input ligand: FMN 200 uM) is reported as 661 nM, the “apparent KD of K4 kissing-loop reporter” value ([1]; input ligand: arginine 13.2 mM) is reported as 380 nM and the “apparent KD of K4 kissing-loop reporter” value ([1]; input ligand: none) is reported as 387 nM. The “apparent KD of K4 kissing-loop reporter” value [1, 2] was 375 nM and the “apparent KD of K4 kissing-loop reporter” value [1, 4] was 335 nM.

In the case of “UUCAGUGAUGUUGAACACUGUUGUAUAAACUAGGAUAUGCUGAUAAGCAGAAGGAGUGAUGUUCCGUUCAACAUCAGAAUUAAAU [#08 K4 FMN A Exclusion]”, the “apparent KD of K4 kissing-loop reporter” value ([1]; input ligand: FMN 200 uM) is reported as 662 nM, the “apparent KD of K4 kissing-loop reporter” value ([1]; input ligand: arginine 13.2 mM) is reported as 415 nM and the “apparent KD of K4 kissing-loop reporter” value ([1]; input ligand: none) is reported as 488 nM. For the same sequence, the “apparent KD of K4 kissing-loop reporter” value [1, 2] was 496 nM and the “apparent KD of K4 kissing-loop reporter” value [1, 4] was 269 nM.

“UUCAUCGUGGUUCGCGGGUGGUAUGAAAAGCGAGGACCGGUACGGCCGCCACUCGGUUCCGCUUGUUGAGUGAUGUUCAAUAUUU” was tested, and the “apparent KD of K4 kissing-loop reporter” value ([1]; input ligand: FMN 200 uM) was 207 nM, the “apparent KD of K4 kissing-loop reporter” value ([1]; input ligand: arginine 13.2 mM) was 281 nM and the “apparent KD of K4 kissing-loop reporter” value ([1]; input ligand: none) was 251 nM. The “apparent KD of K4 kissing-loop reporter” value [1, 2] was 350 nM and the “apparent KD of K4 kissing-loop reporter” value [1, 4] was 229 nM.

With “UUCUACGUGCAAGGAUAUCCAUACGCUGCCCAGCGGGUAGCGAUAUAUGGAGUGAUGUUCCAUGUAGGAGAAGGUGCACUGUCCU [Atrea]” the “apparent KD of K4 kissing-loop reporter” value ([1]; input ligand: FMN 200 uM) was 149 nM, the “apparent KD of K4 kissing-loop reporter” value ([1]; input ligand: arginine 13.2 mM) was 386 nM and the “apparent KD of K4 kissing-loop reporter” value ([1]; input ligand: none) was 457 nM. For the same sequence, the “apparent KD of K4 kissing-loop reporter” value [1, 2] was 466 nM and the “apparent KD of K4 kissing-loop reporter” value [1, 4] was 475 nM.

From the supplement of paper PMC9170038
